{
  "source": "patent US20090269346A1",
  "about": "(RAPTOR PHARMACEUTICAL, published 2009)",
  "binders": {"B1": {"name": "wild-type RAP d3 (ligand)", "chain": "LDRLRRVSHQGYSTEAEFEEPRVIDLWDLEQSANLTDKELEAFREELKHFEAKIEKHNHYQKQLEIAHEKLRHAESVGDGERVSRSREKHALLEGRTKELGYTVKKHLQDLSGRISRAR", "notes": "expressed in E. coli from pET30(+)a; not shown: vector-encoded N-terminal tags of pET30(+)a (hexahistidine and S-peptide, as stated for the CR constructs)"}},
  "key": {"[1]": {"target": "T1, LRP1 CR3-5 (human)", "T1 construct": "range 852-973; Amplified from human cDNA; also called L1 CR3-5", "T1 sequence (Q07954 852-973)": "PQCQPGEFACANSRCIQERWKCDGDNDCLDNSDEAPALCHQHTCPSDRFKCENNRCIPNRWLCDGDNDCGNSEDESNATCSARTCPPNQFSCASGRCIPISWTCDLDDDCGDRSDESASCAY", "assay": "solid-phase assay, coated CR protein, anti-RAP, OD450", "experimental": "(§1) Solid phase binding assays-Purified, refolded CR protein (1 μg) was bound to Nunc Maxisorp™ 96-well plates in TBS pH 8 supplemented with 5 mM CaCl₂ (TBSC) overnight at 4° C. Wells were washed with TBSC and then blocked with TBSC containing 2% bovine serum albumin (BSA). RAP ligands were then incubated with the immobilized receptor at a range of concentrations for 2 hours in the above blocking buffer supplemented with 0.05% Tween-20 at room temperature. Control wells contained no added ligand. As an additional control, to determine whether the absence of calcium affected binding, 10 mM EGTA was included in the incubation medium for some samples. Wells were washed with TBSTC and bound ligands detected with polyclonal anti-RAP (BP41/42, 1:1,000, BioMarin). Excess primary antibody was removed and wells washed before incubation with the secondary antibody, HRP-conjugated goat anti rabbit IgG (Bio-Rad). After washing, TMB substrate solutions (Bio-Rad) were added to detect HRP. Color development was stopped with 1N HCl. Absorption at 450 nm was measured with a microplate spectrophotometer (Molecular Devices). Data were plotted and Kd values derived by non-linear regression with the assumption of single-site binding (GraphPad Prism).\n(§2) Additional assays were performed to assess the binding of wild-type RAP d3 (SEQ ID NO: 92) to each CR pair or set of overlapping pairs was then measured by solid-phase assay (FIG. 5B). Diluted samples were incubated with each test protein, immobilized in multiwell plates. Binding assays were performed as described in Methods. Two independent experiments were performed with triplicate wells for each sample. Means and standard deviations were calculated from the combined values from both experiments and plotted against ligand concentration. Curves were fitted using non-linear regression with a single-site binding model (GraphPad Prism). Kd values with standard deviations were derived from the fitted curves. In all cases, 10 mM EGTA removed >85% of the mean binding signal at the highest concentration of ligand tested."}, "[2]": {"target": "T2, LRP2 CR89 (human, UniProt P98164 1025-1102)", "T2 construct": "domain: CR8 and CR9; also called YVWR; L2 CR89; not shown: N-terminal hexahistidine and S-peptide from pET30(+)a", "T2 sequence (P98164 1025-1102)": "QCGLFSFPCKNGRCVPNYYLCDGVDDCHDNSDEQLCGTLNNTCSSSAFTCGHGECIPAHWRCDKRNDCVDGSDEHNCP", "assay": "solid-phase assay, coated CR protein, anti-RAP, OD450", "experimental": "as §1, §2"}, "[3]": {"target": "T3, VLDLR CR6-8 (human, UniProt P98155 235-358)", "T3 construct": "range 235-358; also called V CR6-8; not shown: N-terminal hexahistidine and S-peptide from pET30(+)a", "assay": "solid-phase assay, coated CR protein, anti-RAP, OD450", "experimental": "as §1, §2"}, "[4]": {"target": "T1, LRP1 CR3-5", "assay": "solid-phase assay, coated CR protein, anti-RAP, OD450; apparent Kd repeated from Table 1; unit inferred, nM taken from paragraph 284"}, "[5]": {"target": "T4, LRP2 CR89 V1047D (human, UniProt P98164 1022-1105)", "T4 construct": "also called YDWR", "T4 chain": "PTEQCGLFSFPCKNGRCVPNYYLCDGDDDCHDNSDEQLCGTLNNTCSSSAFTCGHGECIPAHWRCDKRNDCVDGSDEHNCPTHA", "assay": "solid-phase binding assay: CR protein coated on the plate, ligand titrated, anti-RAP polyclonal and HRP secondary, OD 450 nm", "experimental": "as §1\n(§3) One premise of this work was that amino acids at A, C, A′ and C′ within the calcium-binding loops of a CR pair were key determinants of binding affinity for RAP and would be similarly important for binding of RAP variants. To test this idea, we prepared mutants of LRP2 CR89 in which the native, non-canonical residues at these positions were sequentially substituted with the non-native, canonical residues. As defined above, the A, C, A′, C′ string for LRP2 CR89 is YVWR. Mutants included LRP2 CR89 Y1042W (WVWR), LRP2 CR89 V1047D (YDWR), LRP2 CR89 R1088D (YVWD), LRP2 CR89 V1047D R1088D (YDWD), LRP2 CR89 Y1042W V1047D R1088D (WDWD), LRP2 CR89 Y1042W V1047D (WDWR), LRP2 CR89 Y1042W R1088D (WVWD). Binding to both RAP d3 and RAPv2A d3 were measured for each LRP2 CR89 mutant by solid-phase assay. Samples were tested in triplicate. OD values from uncoated wells, receptor-coated wells incubated with buffer alone, and uncoated wells incubated with the highest ligand concentration all gave similar values for all conditions tested."}, "[6]": {"target": "T5, LRP2 CR89 V1047D R1088D (human, UniProt P98164 1022-1105)", "T5 construct": "also called YDWD", "T5 chain": "T4 chain with R68D", "assay": "solid-phase binding assay: CR protein coated on the plate, ligand titrated, anti-RAP polyclonal and HRP secondary, OD 450 nm", "experimental": "as §1, §3"}, "[7]": {"target": "T6, LRP2 CR89 R1088D (human, UniProt P98164 1022-1105)", "T6 construct": "also called YVWD", "assay": "solid-phase binding assay: CR protein coated on the plate, ligand titrated, anti-RAP polyclonal and HRP secondary, OD 450 nm", "experimental": "as §1, §3"}, "[8]": {"target": "T7, LRP2 CR89 Y1042W (human, UniProt P98164 1022-1105)", "T7 construct": "also called WVWR", "T7 chain": "T4 chain with Y22W, D27V", "assay": "solid-phase binding assay: CR protein coated on the plate, ligand titrated, anti-RAP polyclonal and HRP secondary, OD 450 nm", "experimental": "as §1, §3"}, "[9]": {"target": "T6, LRP2 CR89 R1088D", "assay": "solid-phase assay, coated CR protein, anti-RAP, OD450", "experimental": "as §1, §3"}, "[10]": {"target": "T7, LRP2 CR89 Y1042W", "assay": "solid-phase assay, coated CR protein, anti-RAP, OD450", "experimental": "as §1, §3"}, "[11]": {"target": "T8, LRP2 CR89 Y1042W R1088D (human, UniProt P98164 1022-1105)", "T8 construct": "also called WVWD", "T8 chain": "T4 chain with Y22W, D27V, R68D", "assay": "solid-phase assay, coated CR protein, anti-RAP, OD450", "experimental": "as §1, §3"}},
  "note": "Changes are numbered by the printed parent chain.",
  "data": [
    {"binder": "B1", "values": [
      {"measurement": "Kd", "setting": "[1]", "value": 11, "unit": "nM"},
      {"measurement": "Kd", "setting": "[2]", "value": "> 300", "unit": "nM"},
      {"measurement": "Kd", "setting": "[3]", "value": "> 300", "unit": "nM"},
      {"measurement": "Kd", "setting": "[4]", "value": 16, "unit": "nM"},
      {"measurement": "binding result", "setting": "[5]", "value": "no binding (tested: 100 nM)"},
      {"measurement": "binding result", "setting": "[6]", "value": "no binding (tested: 100 nM)"},
      {"measurement": "binding result", "setting": "[7]", "value": "no binding (tested: 100 nM)"},
      {"measurement": "binding result", "setting": "[8]", "value": "no binding (tested: 100 nM)"},
      {"measurement": "% max bind", "setting": "[9]", "value": 7, "unit": "%"},
      {"measurement": "% max bind", "setting": "[10]", "value": 9, "unit": "%"},
      {"measurement": "% max bind", "setting": "[11]", "value": 16, "unit": "%"}
    ]}
  ]
}
